The text below walks through data of US20220002407A1.

The test deals with CD19 on CD19-positive human tumor cells (Raji, Raji-Luc, NALM6, Reh) (human) (UniProt P15391). The test can be described thus: cell-based or functional assay.
Sequence of CD19 on CD19-positive human tumor cells (Raji, Raji-Luc, NALM6, Reh) (human) (P15391 20-556): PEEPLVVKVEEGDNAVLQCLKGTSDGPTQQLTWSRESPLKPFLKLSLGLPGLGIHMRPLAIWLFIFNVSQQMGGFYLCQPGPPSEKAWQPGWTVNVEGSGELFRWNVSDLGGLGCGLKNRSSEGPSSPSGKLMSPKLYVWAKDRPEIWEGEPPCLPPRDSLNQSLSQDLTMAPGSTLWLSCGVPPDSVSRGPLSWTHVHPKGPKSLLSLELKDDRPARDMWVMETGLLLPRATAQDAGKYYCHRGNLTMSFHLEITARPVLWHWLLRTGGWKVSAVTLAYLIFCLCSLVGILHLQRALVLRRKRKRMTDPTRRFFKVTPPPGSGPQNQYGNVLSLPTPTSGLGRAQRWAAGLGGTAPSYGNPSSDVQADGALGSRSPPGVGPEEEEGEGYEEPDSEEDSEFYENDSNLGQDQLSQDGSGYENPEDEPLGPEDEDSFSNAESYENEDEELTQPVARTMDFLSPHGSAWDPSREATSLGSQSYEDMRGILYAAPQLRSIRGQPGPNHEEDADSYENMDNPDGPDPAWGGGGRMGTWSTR

With “bispecific antibody blinatumomab (Blincyto, Amgen)”, the EC50 of activation of NFAT-RE luciferase reporter Jurkat T cells in the presence of Raji target cells worked out at 2.71 nM, the EC50 to mediate CIK to kill different tumor cells (NALM6) is 0.0773 nM, the EC50 to mediate CIK to kill different tumor cells (Reh) stood at 0.0119 nM and the EC50 to mediate CIK to kill tumor cells (Raji-LUC) turned out to be 0.000595 nM. Further, the EC50 to mediate CIK to kill tumor cells (Raji-LUC, second row without label) was determined as 0.00565 nM; the EC50 to mediate PBMCs to kill tumor cells (Raji-LUC) was found to be 0.00545 nM; the EC50 to mediate PBMCs to kill tumor cells (Raji-LUC, second row without label) stood at 0.0212 nM; the EC50 to mediate PBMCs to kill tumor cells (Raji-LUC, third row without label) turned out to be 0.0226 nM.
